From PMC3619129 come the findings set out here.

This experiment deals with F-actin (human (endogenous in T cells)) (UniProt P60709).

With “T567D ezrin-EGFP (from UniProt P15311 1-586) (natural protein)”, the mobile fraction (MF) of the EGFP-tagged ezrin by FRAP in human T cells, no pretreatment, with SDF-1 came to 0.18; the mobile fraction (MF) of the EGFP-tagged ezrin by FRAP in human T cells, no pretreatment, without SDF-1 turned out to be 0.25; the mobile fraction (MF) of the EGFP-tagged ezrin by FRAP in human T cells, pretreated with latrunculin A (1 μM, 30 min), with SDF-1 turned out to be 0.81; the mobile fraction (MF) of the EGFP-tagged ezrin by FRAP in human T cells, pretreated with latrunculin A (1 μM, 30 min), without SDF-1 came out at 0.72.

As to “wild type (WT) ezrin-EGFP (from UniProt P15311 1-586) (natural protein)”, the mobile fraction (MF) of the EGFP-tagged ezrin by FRAP in human T cells, no pretreatment, with SDF-1 was determined as 0.64; the mobile fraction (MF) of the EGFP-tagged ezrin by FRAP in human T cells, no pretreatment, without SDF-1 was found to be 0.74; the mobile fraction (MF) of the EGFP-tagged ezrin by FRAP in human T cells, pretreated with latrunculin A (1 μM, 30 min), with SDF-1 stood at 0.79; the mobile fraction (MF) of the EGFP-tagged ezrin by FRAP in human T cells, pretreated with latrunculin A (1 μM, 30 min), without SDF-1 worked out at 0.81.
